In assay [1] the target is T1, recombinant extracellular domain of human ErbB-2 tagged with the FLAG epitope (human, UniProt P04626 23-652).
T1 construct: extracellular domain; Expressed in HEK-293 cells, purified on anti-FLAG M2; Biotinylated for biopanning; also called ErbB-2-ECD; ErbB2-ECD
As to the kind of experiment: four rounds of phage display affinity selection on biotinylated ErbB-2-ECD held on streptavidin plates. The method, then:
Biotinylated antigen was incubated with streptavidin coated plates for 2 hours at 4° C. In first and second round of selection 10 μg of biotinylated antigen per plate was added, in third round amount of antigen was decreased to 1 μg, and for fourth round of selection 0.1 μg of antigen was used. Unoccupied biotin-binding sites were blocked with 0.1 mM biotin. Phage was incubated with antigen for 4 hrs at RT. Plates were washed 10 times with TPBS to remove unbound phage. Bound phage was eluted with elution buffer (0.1 M HCl, pH is adjusted to 2.2 with glycine, 1 mg/ml BSA, 0.1 mg/ml phenol red) at RT during 10 min. […] After each round, except the last, the eluate of the bound phage was propagated and used as input for the next round. Individual clones were characterized by DNA sequencing after the fourth round of selection.
A random 6-amino acid peptide bacteriophage display library was affinity selected against the ErbB-2-ECD to identify novel peptide-ligands.

The next assay addresses T2, bovine asialofetuin (bovine, UniProt P12763 19-359, desialylated glycoprotein).
T2 construct: Control protein spotted on nitrocellulose; also called ASF; AF
T2 sequence (looked up): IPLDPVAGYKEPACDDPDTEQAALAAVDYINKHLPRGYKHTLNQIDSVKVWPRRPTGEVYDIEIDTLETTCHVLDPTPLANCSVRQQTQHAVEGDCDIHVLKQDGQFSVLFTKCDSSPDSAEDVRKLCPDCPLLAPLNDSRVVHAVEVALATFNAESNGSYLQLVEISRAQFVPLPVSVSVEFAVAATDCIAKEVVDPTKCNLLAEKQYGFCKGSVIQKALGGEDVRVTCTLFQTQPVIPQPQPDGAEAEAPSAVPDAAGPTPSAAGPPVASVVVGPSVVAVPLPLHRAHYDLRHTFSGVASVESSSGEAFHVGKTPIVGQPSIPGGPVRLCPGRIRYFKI
The assay is described as follows: immunoblot (dot blot) on nitrocellulose, streptavidin-alkaline phosphatase. A general note: In western blotting, separated proteins are transferred to a membrane and probed.

In the next assay the target is T3, bovine serum albumin (bovine, UniProt P02769 25-607).
T3 construct: Control protein spotted on nitrocellulose; also called BSA
The assay is described as above.

The target in assay [2] is T1, recombinant extracellular domain of …. As to the kind of experiment: quenching of intrinsic tryptophan fluorescence of soluble ErbB-2-ECD titrated with peptide, 1:1 model, global fit of three protein concentrations.
Description: The titrations were performed at 25° C. with varying amounts of peptide added to a fixed ErbB-2-ECD concentration (200-600 nM) in 2 ml of phosphate buffered saline (pH=7.4). Each measurement was collected for 5-20 sec after 1-2 min pre-equilibration. The excitation shutter remained closed during pre-equilibration of the sample and was opened only during data acquisition in order to minimize photobleaching of the sample. The fluorescence measurements were corrected for dilutions and photobleaching of ErbB-2-ECD. Values reported are an average of three independent measurements. […] The fitting procedure was performed using Origin (Microcal Software Inc).
Intrinsic tryptophan fluorescence of the protein was monitored as a function of peptide concentration. […] In the analysis, the inventors assumed a model with the stoichiometric ratio of protein to peptide equal to 1:1. The data were collected at 2 μM, 4 μM and 6 μM concentrations of the protein.

The source of these data is patent US20150335768A1 (CURATORS OF THE UNIVERSITY OF MISSOURI, published 2015).

Ends that are not written are not given here.

T3 sequence (P02769 25-607 limits assumed): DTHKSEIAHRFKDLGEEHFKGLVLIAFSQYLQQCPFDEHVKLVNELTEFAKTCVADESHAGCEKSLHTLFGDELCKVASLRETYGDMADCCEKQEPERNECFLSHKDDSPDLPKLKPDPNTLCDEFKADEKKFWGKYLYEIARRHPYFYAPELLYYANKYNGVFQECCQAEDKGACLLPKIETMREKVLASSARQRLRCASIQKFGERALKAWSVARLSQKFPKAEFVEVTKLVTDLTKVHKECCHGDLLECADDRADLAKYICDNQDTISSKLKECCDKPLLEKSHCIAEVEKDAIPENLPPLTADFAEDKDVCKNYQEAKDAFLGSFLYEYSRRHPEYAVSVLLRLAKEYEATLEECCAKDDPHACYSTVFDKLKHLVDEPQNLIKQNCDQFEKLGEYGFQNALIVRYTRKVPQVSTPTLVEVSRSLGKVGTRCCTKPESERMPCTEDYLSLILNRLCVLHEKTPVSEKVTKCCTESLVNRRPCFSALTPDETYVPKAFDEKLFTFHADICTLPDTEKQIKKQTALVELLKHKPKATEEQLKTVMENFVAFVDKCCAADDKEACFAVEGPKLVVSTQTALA
Description for bovine asialofetuin: (§1) After washing three times with PBS, the membrane was incubated with 100 μM biotinylated peptide for 2 hrs at RT.
Description for bovine serum albumin: as §1

B1: phage-displayed p6.1 peptide KCCYSL (peptide)
chain: KCCYSL
modifications: also: C2-C3 disulfide in the oxidized monomer fraction
notes: Insert of the phage clones selected from the 6-mer library F3-6; not shown: minor coat protein pIII of the fUSE5 (M13/fd type) bacteriophage vector; peptide inserted near the N-terminus of mature
Turning to B1, in assay [1], the binding result is “binds”.

B2: biotinylated synthetic p6.1 peptide (peptide)
peptide: KCCYSL
modifications: cysteine pairing not given here; also: biotin label, position not given here
notes: Biotinylated analog of KCCYSL used in immunoblot, ELISA and cell staining; also called biotinylated p6.1
B2: the binding result with bovine asialofetuin and in the assay with bovine serum albumin was “no binding” each time.

B3: phage-displayed p6.2 peptide WYAWML (peptide)
chain: WYAWML
notes: Only seen as phage clone; not synthesized; not shown: minor coat protein pIII of the fUSE5 (M13/fd type) bacteriophage vector; peptide inserted near the N-terminus of mature
Consider B3, for which the binding result in assay [1] was “binds”.

B4: synthetic p6.1 peptide KCCYSL (peptide)
peptide: KCCYSL
modifications: not fully specified (bridges); also: present as oxidized and reduced monomer
notes: Chemically synthesized, not biotinylated; used in the fluorescence titration
For the molecule B4, the Kd in assay [2] was found to be 30.2 µM.

B5: phage-displayed p6.3 peptide WYSWLL (peptide)
chain: WYSWLL
notes: as for B3
B5: the binding result in assay [1] is reported as “binds”.

Usually Kd stands for the free concentration of one partner at which half of the binding sites on the other are occupied at equilibrium, for simple one-to-one binding.
